{
  "source": "FireProtDB (doi:10.1021/bi061295h)",
  "settings": "Equus caballus, pH 7.4, 25 °C, GdnHCl, reversible: Yes",
  "data": [
    {"substance": "Cytochrome c wild type, P00004", "values": [
      {"measurement": "denaturant m value", "setting": "CD, Tris 20 mM", "result": 2.8, "unit": "kcal/mol/M"},
      {"measurement": "unfolding free energy", "setting": "CD, Tris 20 mM", "result": 7.4, "unit": "kcal/mol"},
      {"measurement": "denaturant m value", "setting": "SUPREX, Sodium phosphate 20 mM", "result": 3, "unit": "kcal/mol/M"}
    ]}
  ]
}
